# Assay results: patent US20220064276A1 (SCHOLAR ROCK, published 2022)
# Where a chain is given by its changes, count along the chain named.
# B1: SR-AB38 (antibody, IgG1, V domains shown)
# VH: QVQLVESGGGVVQPGRSLRLSCAASGFTFRSYVMHWVRQAPGKGLEWVAVISHEGSLKYYADSVKGRFTISRDNSKNTLYLQMNSLRAEDTAVYYCAVPRIAARRGGFGYWGQGTLVTVSS
# VL: NFMLTQPHSVSESPGKTVTISCTRSSGSIDNNYVQWYQQRPGSSPTTVIYEDFIRPSGVPDRFSGSIDSSSNSASLTISGLKTEDEADYYCQSYDDDLQGVVFGGGTKLTVL
# notes: Cycle 3, lineage SR-AB22
# B2: SR-AB52-HuFab (Fab, V domains shown)
# VH: B1 VH with L57G, V98R, Y110T
# VL: B1 VL with S28N, N31Y, F53N, I54V, D96Y, L98T
# notes: Human Fab; also called SR-AB52 Fab
# B3: SR-AB48-HuFab (Fab, V domains shown)
# VH: B1 VH with L57G, V98R, Y110S
# VL: B1 VL with S28N, N31Y, F53N, I54V, D96Y, L98T
# notes: Human Fab; also called SR-AB48 Fab
# B4: SR-AB51-HuFab (Fab, V domains shown)
# VH: B1 VH with L57G, V98R, Y110T
# VL: B1 VL with S28N, N31Y, F53N, I54V, D96Y, L98N, G100A
# notes: Human Fab; also called SR-AB51 Fab
# B5: SR-AB61-HuFab (Fab, V domains shown)
# VH: B1 VH with L57G, V98L, Y110T
# VL: B1 VL with S28N, N31Y, F53N, I54V, S93G, D96W, L98T
# notes: Human Fab; also called SR-AB61 Fab
# B6: SR-AB50-HuFab (Fab, V domains shown)
# VH: B1 VH with L57G, V98R, Y110T
# VL: B1 VL with S28N, N31Y, F53N, I54V, D96S, L98N, G100R
# notes: Human Fab; also called SR-AB50 Fab
# B7: SR-AB41 (antibody, IgG1, V domains shown)
# VH: B1 VH with V98R
# VL: B1 VL with S28N, F53N, I54Q, D96Y, L98N, G100A
# notes: Cycle 3, lineage SR-AB23
# B8: SR-AB45 (antibody, IgG1, V domains shown)
# VH: B1 VH with V98R
# VL: B1 VL with S28A, N31D, I54Q
# notes: Cycle 3, lineage SR-AB23
# B9: SR-AB44 (antibody, IgG1, V domains shown)
# VH: B1 VH with V98R
# VL: B1 VL with S26H, S28N, N31D, F53N, I54V, D96S, L98N, G100L
# notes: Cycle 3, lineage SR-AB23
# B10: SR-AB57-HuFab (Fab, V domains shown)
# VH: B1 VH with L57G, V98L, Y110S
# VL: B1 VL with S28N, N31Y, F53N, I54V, S93G, D96W, L98T
# notes: Human Fab; also called SR-AB57 Fab
# B11: SR-AB54-HuFab (Fab, V domains shown)
# VH: B1 VH with L57G, V98L, Y110S
# VL: B1 VL with S28N, N31Y, F53N, I54V, D96S, L98N, G100R
# notes: Human Fab; also called SR-AB54 Fab
# B12: SR-AB55-HuFab (Fab, V domains shown)
# VH: B1 VH with L57G, V98L, Y110S
# VL: B1 VL with S28N, N31Y, F53N, I54V, D96Y, L98N, G100A
# notes: Human Fab; also called SR-AB55 Fab
# B13: SR-AB58-HuFab (Fab, V domains shown)
# VH: B1 VH with L57G, V98L, Y110T
# VL: B1 VL with S28N, N31Y, F53N, I54V, D96S, L98N, G100R
# notes: Human Fab; also called SR-AB58 Fab
# B14: SR-AB42 (antibody, IgG1, V domains shown)
# VH: B1 VH with V98R
# VL: B1 VL with S28N, F53N, I54Q, D96Y, L98T
# notes: Cycle 3, lineage SR-AB23
# B15: SR-AB60-HuFab (Fab, V domains shown)
# VH: B1 VH with L57G, V98L, Y110T
# VL: B1 VL with S28N, N31Y, F53N, I54V, D96Y, L98T
# notes: Human Fab; also called SR-AB60 Fab
# B16: SR-AB53-HuFab (Fab, V domains shown)
# VH: B1 VH with L57G, V98R, Y110T
# VL: B1 VL with S28N, N31Y, F53N, I54V, S93G, D96W, L98T
# notes: Human Fab; also called SR-AB53 Fab
# B17: SR-AB46-HuFab (Fab, V domains shown)
# VH: B1 VH with L57G, V98R, Y110S
# VL: B1 VL with S28N, N31Y, F53N, I54V, D96S, L98N, G100R
# notes: Human Fab; also called SR-AB46 Fab
# B18: SR-AB59-HuFab (Fab, V domains shown)
# VH: B1 VH with L57G, V98L, Y110T
# VL: B1 VL with S28N, N31Y, F53N, I54V, D96Y, L98N, G100A
# notes: Human Fab; also called SR-AB59 Fab
# B19: SR-AB56-HuFab (Fab, V domains shown)
# VH: B1 VH with L57G, V98L, Y110S
# VL: B1 VL with S28N, N31Y, F53N, I54V, D96Y, L98T
# notes: Human Fab; also called SR-Ab56 Fab
# Experiments:
# [1] = target: T1, human GARP-proTGFβ1 complex (human, UniProt Q14392 18-627; P01137 30-390, limits assumed); assay: Octet BLI, Table 10 (repeats Table 9)
# T1 construct: Exemplary entries; also called Hu GARP-proTGFβ1; huGARP proTGFb1
# Method: (§1) Binding affinities of the optimized antibodies were measured by Octet against human LTBP1-proTGFβ1, human LTBP3-proTGFβ1, mouse LTBP1-proTGFβ1, mouse LTBP3-proTGFβ1, and GARP-proTGFβ1 complexes, essentially as described in Example 6. […] The antigens were allowed to associate for 3 minutes followed by a 5-minute dissociation. Kinetics buffer (ForteBio®) was used throughout the experiment, and KD was determined using a 1:1 fitting model for each antibody antigen pair.
# Table 9 presents the binding profile and affinity data for the indicated LTBP complex-specific antibodies (IgG1-agly) identified from the light chain optimization cycle 3, determined by Octet.
# [2] = target: T2, mouse LTBP1-proTGFβ1 complex (mouse, UniProt Q8CG19 339-1712; P04202 30-390); assay: Octet BLI, IgG captured
# T2 construct: Exemplary entries; In the cell assays expressed from mouse LTBP1S and mouse proTGFb1 plasmids in LN229 cells; also called Mo LTBP1-proTGFβ1; MuLTBP1-ProTGFb1
# Method: as §1
# [3] = target: T3, human LTBP3-proTGFβ1 complex (human, UniProt Q9NS15 44-1303; P01137 30-390, limits assumed); assay: Octet BLI, IgG captured
# T3 construct: Exemplary entries; also called Hu LTBP3-proTGFβ1; huLTBP3 proTGFb1
# Method: as §1
# [4] = target: T4, human LTBP1-proTGFβ1 complex (human, UniProt Q14766 347-1721; P01137 30-390); assay: Octet BLI, IgG captured
# T4 construct: Large latent complex: one presenting molecule disulfide-linked to a proTGFβ1 dimer; also called Hu LTBP1-proTGFβ1; huLTBP1 proTGFβ1
# Method: as §1
# [5] = target: T5, mouse LTBP3-proTGFβ1 complex (mouse, UniProt Q61810 41-1245; P04202 30-390, limits assumed); assay: Octet BLI, IgG captured
# T5 construct: Exemplary entries; also called Mo LTBP3-proTGFβ1; Murine LTBP3 proTGFb1
# Method: as §1
# [6] = target: T1, human GARP-proTGFβ1 complex; assay: Octet BLI, IgG captured
# Method: as §1
# [7] = target: T4, human LTBP1-proTGFβ1 complex; assay: SPR Biacore 8K, Fab over captured antigen
# Method: A Biacore 8K system was employed to determine the monovalent binding affinity and the kinetic parameters for antigen binding of test antibodies. Association and dissociation kinetics of Fab fragments SR-AB42-HuFab, SR-AB63-HuFab and SR-AB43-HuFab to antigen complexes were measured, and resulting ka, kd and KD are provided below. Briefly, the binding kinetics were evaluated by surface plasmon resonance using Biacore 8K (GE Healthcare). Biotinylated capture antigens were immobilized to the chip (10 nM, ˜200 RU loading). A Biotin CAPture sensor chip was used to capture the biotinylated antigens. […] 0 nM was used as a reference. […] 0 nM was used as a reference. Multi-cycle kinetics was employed where each analyte concentration was injected in a separate cycle and the sensor chip surface was regenerated after each cycle. A11 the assays were carried out in freshly prepared 1× HBS-EP+ buffer (10 mM HEPES, 150 mM NaCl, 3 mM EDTA, 0.05% Tween20, pH 7.4). Data were fit globally to a 1:1 binding model to obtain the kinetic parameters. The sensorgram for 0 nM analyte concentration was used as reference.
# [8] = target: T2, mouse LTBP1-proTGFβ1 complex; assay: cell-based or functional assay
# [9] = target: LTBP-proTGFβ1: transfected human proTGFβ1 presented by endogenous LTBP1/3 of LN229 cells (human); assay: cell-based or functional assay
# LTBP-proTGFβ1: transfected human proTGFβ1 presented by endogenous LTBP1/3 of LN229 cells (human), sequence (P01137 30-390): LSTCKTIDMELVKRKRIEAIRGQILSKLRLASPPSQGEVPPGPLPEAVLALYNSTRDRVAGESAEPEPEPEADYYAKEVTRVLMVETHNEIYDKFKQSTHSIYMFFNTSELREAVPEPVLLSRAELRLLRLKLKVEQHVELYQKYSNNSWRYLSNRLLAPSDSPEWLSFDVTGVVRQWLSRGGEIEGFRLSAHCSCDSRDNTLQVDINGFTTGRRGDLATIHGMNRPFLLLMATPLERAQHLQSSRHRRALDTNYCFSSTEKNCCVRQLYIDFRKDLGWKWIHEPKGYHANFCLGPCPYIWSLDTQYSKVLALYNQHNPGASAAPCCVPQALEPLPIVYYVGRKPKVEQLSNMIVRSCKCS
# T5 sequence (Q61810 other isoform, or with tags, fused parts or gaps limits assumed, chain 1 of 2): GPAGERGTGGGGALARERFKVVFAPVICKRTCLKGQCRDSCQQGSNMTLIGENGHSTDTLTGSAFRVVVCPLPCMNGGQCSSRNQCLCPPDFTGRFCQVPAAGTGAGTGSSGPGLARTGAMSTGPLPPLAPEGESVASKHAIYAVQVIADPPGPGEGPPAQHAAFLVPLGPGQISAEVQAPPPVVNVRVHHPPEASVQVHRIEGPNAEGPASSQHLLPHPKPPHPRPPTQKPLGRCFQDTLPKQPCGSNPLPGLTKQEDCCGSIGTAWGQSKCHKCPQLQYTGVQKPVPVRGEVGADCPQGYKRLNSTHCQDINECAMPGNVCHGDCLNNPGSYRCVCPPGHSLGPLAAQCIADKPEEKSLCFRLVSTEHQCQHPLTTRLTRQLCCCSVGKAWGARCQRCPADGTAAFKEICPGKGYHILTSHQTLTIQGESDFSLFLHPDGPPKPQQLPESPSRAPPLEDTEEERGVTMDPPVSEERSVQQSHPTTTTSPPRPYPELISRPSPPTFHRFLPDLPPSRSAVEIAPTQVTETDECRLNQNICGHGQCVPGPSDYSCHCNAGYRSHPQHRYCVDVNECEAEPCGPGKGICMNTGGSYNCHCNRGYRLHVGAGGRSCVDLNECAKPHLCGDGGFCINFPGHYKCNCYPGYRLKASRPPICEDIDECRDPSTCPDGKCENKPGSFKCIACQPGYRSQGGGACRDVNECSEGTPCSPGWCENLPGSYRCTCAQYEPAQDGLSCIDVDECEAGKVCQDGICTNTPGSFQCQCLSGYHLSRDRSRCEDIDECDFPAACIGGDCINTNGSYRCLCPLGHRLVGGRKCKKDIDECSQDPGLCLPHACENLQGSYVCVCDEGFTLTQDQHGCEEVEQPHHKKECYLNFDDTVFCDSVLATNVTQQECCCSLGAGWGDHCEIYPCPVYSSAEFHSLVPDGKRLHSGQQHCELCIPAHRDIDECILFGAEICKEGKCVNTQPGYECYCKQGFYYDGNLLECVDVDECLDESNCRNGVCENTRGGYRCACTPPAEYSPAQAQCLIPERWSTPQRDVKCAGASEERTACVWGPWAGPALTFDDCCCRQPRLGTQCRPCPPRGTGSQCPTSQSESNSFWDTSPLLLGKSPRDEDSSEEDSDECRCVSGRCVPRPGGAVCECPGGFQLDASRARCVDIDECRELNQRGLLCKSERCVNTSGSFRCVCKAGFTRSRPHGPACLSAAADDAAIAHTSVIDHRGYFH
# T5 sequence (P04202 30-390 limits assumed, chain 2 of 2): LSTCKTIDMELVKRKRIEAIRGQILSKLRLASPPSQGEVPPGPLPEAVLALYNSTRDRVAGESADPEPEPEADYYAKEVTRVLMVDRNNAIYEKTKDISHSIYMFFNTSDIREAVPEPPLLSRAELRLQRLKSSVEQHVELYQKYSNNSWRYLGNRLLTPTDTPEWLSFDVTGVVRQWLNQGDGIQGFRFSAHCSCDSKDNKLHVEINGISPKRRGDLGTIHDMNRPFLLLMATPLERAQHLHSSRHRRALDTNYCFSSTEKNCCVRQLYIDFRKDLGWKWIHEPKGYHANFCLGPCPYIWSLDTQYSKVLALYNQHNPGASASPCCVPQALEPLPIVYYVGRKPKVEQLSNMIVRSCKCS
# T2 sequence (Q8CG19 339-1712 limits assumed, chain 1 of 2): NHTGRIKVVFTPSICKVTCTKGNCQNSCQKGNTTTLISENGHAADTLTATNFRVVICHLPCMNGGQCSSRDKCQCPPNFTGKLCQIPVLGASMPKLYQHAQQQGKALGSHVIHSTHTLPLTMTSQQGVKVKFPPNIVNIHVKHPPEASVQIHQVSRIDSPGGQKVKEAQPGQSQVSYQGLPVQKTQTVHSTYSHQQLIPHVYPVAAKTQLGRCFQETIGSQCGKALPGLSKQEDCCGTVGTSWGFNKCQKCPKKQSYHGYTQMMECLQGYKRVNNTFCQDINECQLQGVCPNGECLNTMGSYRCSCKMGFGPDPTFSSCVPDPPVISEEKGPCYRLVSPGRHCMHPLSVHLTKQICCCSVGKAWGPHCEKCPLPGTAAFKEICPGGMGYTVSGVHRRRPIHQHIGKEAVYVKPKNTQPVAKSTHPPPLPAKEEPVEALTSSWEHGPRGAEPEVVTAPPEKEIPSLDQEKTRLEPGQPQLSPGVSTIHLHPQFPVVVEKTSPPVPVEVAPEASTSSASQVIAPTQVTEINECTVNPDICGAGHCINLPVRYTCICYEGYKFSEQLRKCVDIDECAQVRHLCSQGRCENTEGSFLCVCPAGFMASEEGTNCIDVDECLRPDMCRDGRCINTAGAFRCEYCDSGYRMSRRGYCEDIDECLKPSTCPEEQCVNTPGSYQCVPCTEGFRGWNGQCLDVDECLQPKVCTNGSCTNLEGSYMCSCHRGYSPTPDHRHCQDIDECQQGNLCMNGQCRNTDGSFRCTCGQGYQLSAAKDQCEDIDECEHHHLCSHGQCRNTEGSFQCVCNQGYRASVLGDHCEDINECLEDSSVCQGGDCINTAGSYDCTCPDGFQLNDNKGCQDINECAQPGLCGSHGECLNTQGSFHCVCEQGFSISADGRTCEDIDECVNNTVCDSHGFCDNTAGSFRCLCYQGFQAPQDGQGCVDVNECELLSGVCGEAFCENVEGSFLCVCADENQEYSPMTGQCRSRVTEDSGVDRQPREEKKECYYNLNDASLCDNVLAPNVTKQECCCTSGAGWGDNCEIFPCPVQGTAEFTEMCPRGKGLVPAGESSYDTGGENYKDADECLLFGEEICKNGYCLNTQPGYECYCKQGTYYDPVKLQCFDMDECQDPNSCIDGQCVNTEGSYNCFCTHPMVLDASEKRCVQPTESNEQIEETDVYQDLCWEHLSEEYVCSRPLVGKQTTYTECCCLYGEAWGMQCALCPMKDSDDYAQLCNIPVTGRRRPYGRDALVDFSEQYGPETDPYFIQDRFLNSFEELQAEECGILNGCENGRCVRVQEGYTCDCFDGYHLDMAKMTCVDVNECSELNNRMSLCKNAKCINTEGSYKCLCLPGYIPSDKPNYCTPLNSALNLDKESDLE
# T2 sequence (P04202 30-390 limits assumed, chain 2 of 2): as the sequence (P04202 30-390 limits assumed, chain 2 of 2) above
# T3 sequence (Q9NS15 44-1303 limits assumed, chain 1 of 2): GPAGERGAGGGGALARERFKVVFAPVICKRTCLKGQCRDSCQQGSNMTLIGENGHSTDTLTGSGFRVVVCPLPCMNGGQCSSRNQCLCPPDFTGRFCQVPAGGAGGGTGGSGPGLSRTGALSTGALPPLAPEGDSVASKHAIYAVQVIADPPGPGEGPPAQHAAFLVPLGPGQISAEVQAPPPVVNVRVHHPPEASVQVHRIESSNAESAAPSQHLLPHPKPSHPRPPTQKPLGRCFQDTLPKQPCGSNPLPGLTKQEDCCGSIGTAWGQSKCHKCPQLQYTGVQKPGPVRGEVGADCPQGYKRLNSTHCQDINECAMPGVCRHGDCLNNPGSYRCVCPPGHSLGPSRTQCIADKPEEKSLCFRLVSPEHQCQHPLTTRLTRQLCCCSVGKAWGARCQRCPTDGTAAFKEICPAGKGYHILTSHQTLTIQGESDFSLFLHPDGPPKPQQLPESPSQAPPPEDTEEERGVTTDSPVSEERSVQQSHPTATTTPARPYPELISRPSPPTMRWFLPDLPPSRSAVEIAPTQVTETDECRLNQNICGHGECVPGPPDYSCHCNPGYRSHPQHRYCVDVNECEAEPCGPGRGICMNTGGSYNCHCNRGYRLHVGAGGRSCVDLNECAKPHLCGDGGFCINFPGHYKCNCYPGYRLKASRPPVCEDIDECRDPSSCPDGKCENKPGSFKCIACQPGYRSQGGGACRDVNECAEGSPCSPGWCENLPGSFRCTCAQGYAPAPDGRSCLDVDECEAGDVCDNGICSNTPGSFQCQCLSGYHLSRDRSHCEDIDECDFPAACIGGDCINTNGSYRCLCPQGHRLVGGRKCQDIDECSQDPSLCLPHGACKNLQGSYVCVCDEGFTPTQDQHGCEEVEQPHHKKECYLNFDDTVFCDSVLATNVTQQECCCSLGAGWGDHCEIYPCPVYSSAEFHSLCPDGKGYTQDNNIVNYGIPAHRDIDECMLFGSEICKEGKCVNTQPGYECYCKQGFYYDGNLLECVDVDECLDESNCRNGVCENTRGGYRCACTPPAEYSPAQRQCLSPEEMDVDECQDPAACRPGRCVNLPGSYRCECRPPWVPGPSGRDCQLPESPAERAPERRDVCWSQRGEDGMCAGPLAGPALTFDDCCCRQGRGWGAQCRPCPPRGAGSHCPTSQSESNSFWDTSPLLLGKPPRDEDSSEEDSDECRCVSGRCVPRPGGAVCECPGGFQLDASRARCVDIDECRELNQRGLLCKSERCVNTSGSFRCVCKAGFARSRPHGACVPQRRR
# T3 sequence (P01137 30-390 limits assumed, chain 2 of 2): as the sequence (P01137 30-390) above
binder,measurement,setting,value
B1,Kd,[1],8.42 nM
same,Kd,[2],0.391 nM
same,Kd,[3],0.145 nM
same,koff,[3],7.26e-05 s⁻¹
same,kon,[3],502000 M⁻¹ s⁻¹
same,Kd,[4],0.357 nM
same,koff,[4],0.000117 s⁻¹
same,kon,[4],327000 M⁻¹ s⁻¹
same,Kd,[5],0.331 nM
same,Kd,[6],8.42 nM
B2,Kd,[7],0.0396 nM
same,koff,[7],9.91e-05 s⁻¹
same,kon,[7],2.5e+06 M⁻¹ s⁻¹
B3,Kd,[7],0.0593 nM
same,koff,[7],0.000104 s⁻¹
same,kon,[7],1.76e+06 M⁻¹ s⁻¹
B4,Kd,[7],0.0589 nM
same,koff,[7],0.00015 s⁻¹
same,kon,[7],2.55e+06 M⁻¹ s⁻¹
B5,Kd,[7],0.132 nM
same,koff,[7],0.000155 s⁻¹
same,kon,[7],1.17e+06 M⁻¹ s⁻¹
B6,Kd,[7],0.055 nM
same,koff,[7],0.000182 s⁻¹
same,kon,[7],3.31e+06 M⁻¹ s⁻¹
B7,Kd,[1],764 nM
same,"IC50, mLTBP1 assay (CAGA12 luciferase)",[8],0.409 nM
same,"IC50, endogenous hLTBP assay (CAGA12 luciferase)",[9],1.54 nM
same,Kd,[2],0.404 nM
same,Kd,[3],0.235 nM
same,koff,[3],6e-05 s⁻¹
same,kon,[3],255000 M⁻¹ s⁻¹
same,Kd,[4],0.296 nM
same,koff,[4],6e-05 s⁻¹
same,kon,[4],203000 M⁻¹ s⁻¹
same,Kd,[5],0.717 nM
same,Kd,[6],764 nM
B8,Kd,[1],195 nM
same,"IC50, mLTBP1 assay (CAGA12 luciferase)",[8],0.264 nM
same,"IC50, endogenous hLTBP assay (CAGA12 luciferase)",[9],2.25 nM
same,Kd,[2],0.193 nM
same,Kd,[3],0.122 nM
same,koff,[3],6e-05 s⁻¹
same,kon,[3],491000 M⁻¹ s⁻¹
same,Kd,[4],0.193 nM
same,koff,[4],6e-05 s⁻¹
same,kon,[4],310000 M⁻¹ s⁻¹
same,Kd,[5],0.269 nM
same,Kd,[6],195 nM
B9,Kd,[1],212 nM
same,"IC50, mLTBP1 assay (CAGA12 luciferase)",[8],0.3 nM
same,"IC50, endogenous hLTBP assay (CAGA12 luciferase)",[9],1.51 nM
same,Kd,[2],0.21 nM
same,Kd,[3],0.146 nM
same,koff,[3],6e-05 s⁻¹
same,kon,[3],410000 M⁻¹ s⁻¹
same,Kd,[4],0.214 nM
same,koff,[4],6e-05 s⁻¹
same,kon,[4],280000 M⁻¹ s⁻¹
same,Kd,[5],0.407 nM
same,Kd,[6],212 nM
B10,Kd,[7],0.133 nM
same,koff,[7],0.000181 s⁻¹
same,kon,[7],1.35e+06 M⁻¹ s⁻¹
B11,Kd,[7],0.0491 nM
same,koff,[7],8.83e-05 s⁻¹
same,kon,[7],1.8e+06 M⁻¹ s⁻¹
B12,Kd,[7],0.131 nM
same,koff,[7],0.000113 s⁻¹
same,kon,[7],862000 M⁻¹ s⁻¹
B13,Kd,[7],0.0521 nM
same,koff,[7],0.000162 s⁻¹
same,kon,[7],3.11e+06 M⁻¹ s⁻¹
B14,"IC50, mLTBP1 assay (CAGA12 luciferase)",[8],0.271 nM
same,"IC50, endogenous hLTBP assay (CAGA12 luciferase)",[9],1.43 nM
same,Kd,[2],0.359 nM
same,Kd,[3],0.259 nM
same,koff,[3],6e-05 s⁻¹
same,kon,[3],232000 M⁻¹ s⁻¹
same,Kd,[4],0.389 nM
same,koff,[4],6e-05 s⁻¹
same,kon,[4],154000 M⁻¹ s⁻¹
same,Kd,[5],1.05 nM
B15,Kd,[7],0.051 nM
same,koff,[7],0.00012 s⁻¹
same,kon,[7],2.35e+06 M⁻¹ s⁻¹
B16,Kd,[7],0.0707 nM
same,koff,[7],0.000128 s⁻¹
same,kon,[7],1.82e+06 M⁻¹ s⁻¹
B17,Kd,[7],0.0444 nM
same,koff,[7],0.00011 s⁻¹
same,kon,[7],2.47e+06 M⁻¹ s⁻¹
B18,Kd,[7],0.0509 nM
same,koff,[7],0.00013 s⁻¹
same,kon,[7],2.55e+06 M⁻¹ s⁻¹
B19,Kd,[7],0.0489 nM
same,koff,[7],0.000126 s⁻¹
same,kon,[7],2.58e+06 M⁻¹ s⁻¹
